Results from paper PMC11220742.

Legend:
[1] = target: HLA-A*2601 H chain (extracellular domain) refolded with human β2-microglobulin; assay: in vitro refolding, gel filtration; conditions: parent: est. 300; read off a plot
[2] = target: HLA-A*0101 H chain (extracellular domain) refolded with human β2-microglobulin; assay: in vitro refolding, gel filtration; conditions: parent: est. 230; read off a plot

For EVF peptide (SARS-CoV-2 S 340–351) E1A, which response [1] is on record?
The response was 290 mAU.

For EVF peptide (SARS-CoV-2 S 340–351) F3D, which response [2] is on record?
The response was 330 mAU.

How did the response [1] turn out when EVF peptide (SARS-CoV-2 S 340–351) E1R was run?
Its response is 100 mAU.
